T1: FcγRIIb extracellular domain with C-terminal His tag (human, UniProt P31994 43-217)
T1 construct: extracellular domain; soluble receptor expressed in FreeStyle293 cells, used as analyte in Biacore; also called FcgRIIb; 2b; not shown: His tag attached to the C terminus
T1 sequence (looked up): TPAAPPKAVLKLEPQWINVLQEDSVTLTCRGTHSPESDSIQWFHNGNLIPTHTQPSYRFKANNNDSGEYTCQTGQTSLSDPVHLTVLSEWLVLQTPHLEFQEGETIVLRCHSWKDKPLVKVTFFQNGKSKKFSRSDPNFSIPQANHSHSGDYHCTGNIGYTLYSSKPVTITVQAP


Tests used:
[1] = target: T1, FcγRIIb extracellular domain with …; experiment: SPR (Biacore), antibody captured on antigen peptide chip, FcγR as analyte; relative binding
[2] = target: T2, FcγRIa extracellular domain with C-terminal His tag (human, UniProt P12314 16-292); experiment: as above
T2 construct: extracellular domain; soluble receptor expressed in FreeStyle293 cells, used as analyte in Biacore; also called FcgRI; 1a; not shown: His tag attached to the C terminus
T2 sequence (P12314 16-292): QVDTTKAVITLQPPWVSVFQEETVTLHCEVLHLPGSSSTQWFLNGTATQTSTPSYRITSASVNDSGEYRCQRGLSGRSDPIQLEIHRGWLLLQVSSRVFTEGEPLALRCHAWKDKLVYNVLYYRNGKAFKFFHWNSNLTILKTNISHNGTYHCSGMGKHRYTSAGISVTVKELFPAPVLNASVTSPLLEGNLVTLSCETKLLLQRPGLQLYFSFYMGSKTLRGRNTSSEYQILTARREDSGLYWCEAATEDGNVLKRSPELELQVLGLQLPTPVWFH

| He/Con_2b [1] | He/Con_1a [2] | Binder |
| --- | --- | --- |
| 30.5 % of control GpH7-A5/GpH7-B3/GpL16-k0 (=100) | 76.3 % of control GpH7-A5/GpH7-B3/GpL16-k0 (=100) | GpH7-A5/GpH7-B3 variant D270_01G/GpL16-k0 (antibody, human IgG1, kappa, heterodimerized anti-glypican-3 IgG1; alteration in the GpH7-B3 chain only; also called He Ab) heavy 1: not shown heavy 2: not shown light: DIVMTQSPLSLPVTPGEPASISCQASESLVHSNRNTYLHWYLQKPGQSPQLLIYKVSNRFSGVPDRFSGSGSGTDFTLKISRVEAEDVGVYYCSQNTHVPPTFGQGTKVEIERTVAAPSVFIFPPSDEQLKSGTASVVCLLNNFYPREAKVQWKVDNALQSGNSQESVTEQDSKDSTYSLSSTLTLSKADYEKHKVYACEVTHQGLSSPVTKSFNRGEC |
| 55.6 % of control GpH7-A5/GpH7-B3/GpL16-k0 (=100) | 109 % of control GpH7-A5/GpH7-B3/GpL16-k0 (=100) | GpH7-A5/GpH7-B3 variant A330_09D/GpL16-k0 (antibody, human IgG1, kappa, heterodimerized anti-glypican-3 IgG1; alteration in the GpH7-B3 chain only; also called He Ab) heavy 1: not shown heavy 2: not shown light: DIVMTQSPLSLPVTPGEPASISCQASESLVHSNRNTYLHWYLQKPGQSPQLLIYKVSNRFSGVPDRFSGSGSGTDFTLKISRVEAEDVGVYYCSQNTHVPPTFGQGTKVEIERTVAAPSVFIFPPSDEQLKSGTASVVCLLNNFYPREAKVQWKVDNALQSGNSQESVTEQDSKDSTYSLSSTLTLSKADYEKHKVYACEVTHQGLSSPVTKSFNRGEC |
| 92.8 % of control GpH7-A5/GpH7-B3/GpL16-k0 (=100) | 106 % of control GpH7-A5/GpH7-B3/GpL16-k0 (=100) | GpH7-A5/GpH7-B3 variant A330_04F/GpL16-k0 (antibody, human IgG1, kappa, heterodimerized anti-glypican-3 IgG1; alteration in the GpH7-B3 chain only; also called He Ab) heavy 1: not shown heavy 2: not shown light: DIVMTQSPLSLPVTPGEPASISCQASESLVHSNRNTYLHWYLQKPGQSPQLLIYKVSNRFSGVPDRFSGSGSGTDFTLKISRVEAEDVGVYYCSQNTHVPPTFGQGTKVEIERTVAAPSVFIFPPSDEQLKSGTASVVCLLNNFYPREAKVQWKVDNALQSGNSQESVTEQDSKDSTYSLSSTLTLSKADYEKHKVYACEVTHQGLSSPVTKSFNRGEC |
| 70.5 % of control GpH7-A5/GpH7-B3/GpL16-k0 (=100) | 107 % of control GpH7-A5/GpH7-B3/GpL16-k0 (=100) | GpH7-A5/GpH7-B3 variant A330_08L/GpL16-k0 (antibody, human IgG1, kappa, heterodimerized anti-glypican-3 IgG1; alteration in the GpH7-B3 chain only; also called He Ab) heavy 1: not shown heavy 2: not shown light: DIVMTQSPLSLPVTPGEPASISCQASESLVHSNRNTYLHWYLQKPGQSPQLLIYKVSNRFSGVPDRFSGSGSGTDFTLKISRVEAEDVGVYYCSQNTHVPPTFGQGTKVEIERTVAAPSVFIFPPSDEQLKSGTASVVCLLNNFYPREAKVQWKVDNALQSGNSQESVTEQDSKDSTYSLSSTLTLSKADYEKHKVYACEVTHQGLSSPVTKSFNRGEC |
| 48.3 % of control GpH7-A5/GpH7-B3/GpL16-k0 (=100) | 71.5 % of control GpH7-A5/GpH7-B3/GpL16-k0 (=100) | GpH7-A5/GpH7-B3 variant D270_02A/GpL16-k0 (antibody, human IgG1, kappa, heterodimerized anti-glypican-3 IgG1; alteration in the GpH7-B3 chain only; also called He Ab) heavy 1: not shown heavy 2: not shown light: DIVMTQSPLSLPVTPGEPASISCQASESLVHSNRNTYLHWYLQKPGQSPQLLIYKVSNRFSGVPDRFSGSGSGTDFTLKISRVEAEDVGVYYCSQNTHVPPTFGQGTKVEIERTVAAPSVFIFPPSDEQLKSGTASVVCLLNNFYPREAKVQWKVDNALQSGNSQESVTEQDSKDSTYSLSSTLTLSKADYEKHKVYACEVTHQGLSSPVTKSFNRGEC |
| 67.1 % of control GpH7-A5/GpH7-B3/GpL16-k0 (=100) | 105 % of control GpH7-A5/GpH7-B3/GpL16-k0 (=100) | GpH7-A5/GpH7-B3 variant A330_07I/GpL16-k0 (antibody, human IgG1, kappa, heterodimerized anti-glypican-3 IgG1; alteration in the GpH7-B3 chain only; also called He Ab) heavy 1: not shown heavy 2: not shown light: DIVMTQSPLSLPVTPGEPASISCQASESLVHSNRNTYLHWYLQKPGQSPQLLIYKVSNRFSGVPDRFSGSGSGTDFTLKISRVEAEDVGVYYCSQNTHVPPTFGQGTKVEIERTVAAPSVFIFPPSDEQLKSGTASVVCLLNNFYPREAKVQWKVDNALQSGNSQESVTEQDSKDSTYSLSSTLTLSKADYEKHKVYACEVTHQGLSSPVTKSFNRGEC |
| 77.9 % of control GpH7-A5/GpH7-B3/GpL16-k0 (=100) | 105 % of control GpH7-A5/GpH7-B3/GpL16-k0 (=100) | GpH7-A5/GpH7-B3 variant A330_14T/GpL16-k0 (antibody, human IgG1, kappa, heterodimerized anti-glypican-3 IgG1; alteration in the GpH7-B3 chain only; also called He Ab) heavy 1: not shown heavy 2: not shown light: DIVMTQSPLSLPVTPGEPASISCQASESLVHSNRNTYLHWYLQKPGQSPQLLIYKVSNRFSGVPDRFSGSGSGTDFTLKISRVEAEDVGVYYCSQNTHVPPTFGQGTKVEIERTVAAPSVFIFPPSDEQLKSGTASVVCLLNNFYPREAKVQWKVDNALQSGNSQESVTEQDSKDSTYSLSSTLTLSKADYEKHKVYACEVTHQGLSSPVTKSFNRGEC |
| 80.5 % of control GpH7-A5/GpH7-B3/GpL16-k0 (=100) | 105 % of control GpH7-A5/GpH7-B3/GpL16-k0 (=100) | GpH7-A5/GpH7-B3 variant A330_06M/GpL16-k0 (antibody, human IgG1, kappa, heterodimerized anti-glypican-3 IgG1; alteration in the GpH7-B3 chain only; also called He Ab) heavy 1: not shown heavy 2: not shown light: DIVMTQSPLSLPVTPGEPASISCQASESLVHSNRNTYLHWYLQKPGQSPQLLIYKVSNRFSGVPDRFSGSGSGTDFTLKISRVEAEDVGVYYCSQNTHVPPTFGQGTKVEIERTVAAPSVFIFPPSDEQLKSGTASVVCLLNNFYPREAKVQWKVDNALQSGNSQESVTEQDSKDSTYSLSSTLTLSKADYEKHKVYACEVTHQGLSSPVTKSFNRGEC |
| 95 % of control GpH7-A5/GpH7-B3/GpL16-k0 (=100) | 103 % of control GpH7-A5/GpH7-B3/GpL16-k0 (=100) | GpH7-A5/GpH7-B3 variant A330_11K/GpL16-k0 (antibody, human IgG1, kappa, heterodimerized anti-glypican-3 IgG1; alteration in the GpH7-B3 chain only; also called He Ab) heavy 1: not shown heavy 2: not shown light: DIVMTQSPLSLPVTPGEPASISCQASESLVHSNRNTYLHWYLQKPGQSPQLLIYKVSNRFSGVPDRFSGSGSGTDFTLKISRVEAEDVGVYYCSQNTHVPPTFGQGTKVEIERTVAAPSVFIFPPSDEQLKSGTASVVCLLNNFYPREAKVQWKVDNALQSGNSQESVTEQDSKDSTYSLSSTLTLSKADYEKHKVYACEVTHQGLSSPVTKSFNRGEC |
| 90.8 % of control GpH7-A5/GpH7-B3/GpL16-k0 (=100) | 105 % of control GpH7-A5/GpH7-B3/GpL16-k0 (=100) | GpH7-A5/GpH7-B3 variant A330_19Q/GpL16-k0 (antibody, human IgG1, kappa, heterodimerized anti-glypican-3 IgG1; alteration in the GpH7-B3 chain only; also called He Ab) heavy 1: not shown heavy 2: not shown light: DIVMTQSPLSLPVTPGEPASISCQASESLVHSNRNTYLHWYLQKPGQSPQLLIYKVSNRFSGVPDRFSGSGSGTDFTLKISRVEAEDVGVYYCSQNTHVPPTFGQGTKVEIERTVAAPSVFIFPPSDEQLKSGTASVVCLLNNFYPREAKVQWKVDNALQSGNSQESVTEQDSKDSTYSLSSTLTLSKADYEKHKVYACEVTHQGLSSPVTKSFNRGEC |

Source: US20180155451A1 (published 2018)
